Data set [1] concerns the target purified human H3 recombinant protein (NEB), P20929.
Data set [2] has as its target T1, biotinylated H4-derived unphosphorylated peptide TVTAMDVVYALKRQGRT
T1 chain: TVTAMDVVYALKRQGRT

The target in data set [3] is purified human H4 recombinant protein (NEB), P62805.

B1: purified Ack1 (protein)
chain: MQPEEGTGWLLELLSEVQLQQYFLRLRDDLNVTRLSHFEYVKNEDLEKIGMGRPGQRRLWEAVKRRKALCKRKSWMSKVFSGKRLEAEFPPHHSQSTFRKTSPAPGGPAGEGPLQSLTCLIGEKDLRLLEKLGDGSFGVVRRGEWDAPSGKTVSVAVKCLKPDVLSQPEAMDDFIREVNAMHSLDHRNLIRLYGVVLTPPMKMVTELAPLGSLLDRLRKHQGHFLLGTLSRYAVQVAEGMGYLESKRFIHRDLAARNLLLATRDLVKIGDFGLMRALPQNDDHYVMQEHRKVPFAWCAPESLKTRTFSHASDTWMFGVTLWEMFTYGQEPWIGLNGSQILHKIDKEGERLPRPEDCPQDIYNVMVQCWAHKPEDRPTFVALRDFLLEAQPTDMRALQDFEEPDKLHIQMNDVITVIEGRAENYWWRGQNTRTLCVGPFPRNVVTSVAGLSAQDISQPLQNSFIHTGHGDSDPRHCWGFPDRIDELYLGNPMDPPDLLSVELSTSRPPQHLGGVKKPTYDPVSEDQDPLSSDFKRLGLRKPGLPRGLWLAKPSARVPGTKASRGSGAEVTLIDFGEEPVVPALRPCAPSLAQLAMDACSLLDETPPQSPTRALPRPLHPTPVVDWDARPLPPPPAYDDVAQDEDDFEICSINSTLVGAGVPAGPSQGQTNYAFVPEQARPPPPLEDNLFLPPQGGGKPPSSAQTAEIFQALQQECMRQLQAPAGSPAPSPSPGGDDKPQVPPRVPIPPRPTRPHVQLSPAPPGEEETSQWPGPASPPRVPPREPLSPQGSRTPSPLVPPGSSPLPPRLSSSPGKTMPTTQSFASDPKYATPQVIQAPGPRAGPCILPIVRDGKKVSSTHYYLLPERPSYLERYQRFLREAQSPEEPTPLPVPLLLPPPSTPAPAAPTATVRPMPQAALDPKANFSTNNSNPGARPPPPRATARLPQRGCPGDGPEAGRPADKIQMAMVHGVTTEECQAALQCHGWSVQRAAQYLKVEQLFGLGLRPRGECHKVLEMFDWNLEQAGCHLLGSWGPAHHKR
Consider B1, for which the “in vitro kinase reaction, immunoblot with pTyr99-H3 antibody” value in data set [1] is “Ack1 directly phosphorylates histone H3 at Tyr99”. For the same protein, in data set [2], the “in vitro kinase assay on plate-bound peptide, ELISA with pY88-H4 antibodies” value was “Incubation of H4 peptide with WEE1 and Ack1 protein resulted in robust H4 Tyr88-phosphorylation”.

B2: purified constitutively active E346K-Ack1 (protein)
chain: MQPEEGTGWLLELLSEVQLQQYFLRLRDDLNVTRLSHFEYVKNEDLEKIGMGRPGQRRLWEAVKRRKALCKRKSWMSKVFSGKRLEAEFPPHHSQSTFRKTSPAPGGPAGEGPLQSLTCLIGEKDLRLLEKLGDGSFGVVRRGEWDAPSGKTVSVAVKCLKPDVLSQPEAMDDFIREVNAMHSLDHRNLIRLYGVVLTPPMKMVTELAPLGSLLDRLRKHQGHFLLGTLSRYAVQVAEGMGYLESKRFIHRDLAARNLLLATRDLVKIGDFGLMRALPQNDDHYVMQEHRKVPFAWCAPESLKTRTFSHASDTWMFGVTLWEMFTYGQEPWIGLNGSQILHKIDKKGERLPRPEDCPQDIYNVMVQCWAHKPEDRPTFVALRDFLLEAQPTDMRALQDFEEPDKLHIQMNDVITVIEGRAENYWWRGQNTRTLCVGPFPRNVVTSVAGLSAQDISQPLQNSFIHTGHGDSDPRHCWGFPDRIDELYLGNPMDPPDLLSVELSTSRPPQHLGGVKKPTYDPVSEDQDPLSSDFKRLGLRKPGLPRGLWLAKPSARVPGTKASRGSGAEVTLIDFGEEPVVPALRPCAPSLAQLAMDACSLLDETPPQSPTRALPRPLHPTPVVDWDARPLPPPPAYDDVAQDEDDFEICSINSTLVGAGVPAGPSQGQTNYAFVPEQARPPPPLEDNLFLPPQGGGKPPSSAQTAEIFQALQQECMRQLQAPAGSPAPSPSPGGDDKPQVPPRVPIPPRPTRPHVQLSPAPPGEEETSQWPGPASPPRVPPREPLSPQGSRTPSPLVPPGSSPLPPRLSSSPGKTMPTTQSFASDPKYATPQVIQAPGPRAGPCILPIVRDGKKVSSTHYYLLPERPSYLERYQRFLREAQSPEEPTPLPVPLLLPPPSTPAPAAPTATVRPMPQAALDPKANFSTNNSNPGARPPPPRATARLPQRGCPGDGPEAGRPADKIQMAMVHGVTTEECQAALQCHGWSVQRAAQYLKVEQLFGLGLRPRGECHKVLEMFDWNLEQAGCHLLGSWGPAHHKR
B2: the “in vitro kinase assay, immunoblot with pTyr51-H4 antibody” value in data set [3] was “When purified E346K-Ack1 and H4 were incubated, H4 was Tyr51-phosphorylated”.

For the origin of these results see patent US20150011567.
